# Read-outs that look alike come from different tables or passages of the source.
# Experiments:
# [1] = Stopped-flow CTC formation on mixing photoreduced hAIF∆1-101 with NAD+; assay type: biochemical
# Procedure: Stopped-flow spectrophotometry was also used to evaluate the rate constants of CTC formation when mixing photoreduced hAIF∆1-101 (hAIF∆1-101phrd) with increasing concentrations of NAD^+ (0.125-5 mM) under anaerobic conditions. hAIF∆1-101phrd samples were obtained by photoreduction in the presence of 5 μM methyl viologen, 3 μM 5-deazariboflavin, and 20 mM EDTA. The assays were performed at 25 °C in 50 mM potassium phosphate, pH 7.4, under anaerobic conditions (obtained by several cycles of vacuum application and bubbling with O2 free argon). Data were global fitted to a single step model (A→B), and kobs were determined at the different NAD^+ concentrations assayed. These values were then fitted to the equation that describes the formation of a transient hAIF∆1-101phrd:NAD^+ complex prior to the CTC stabilization: (4) kobs=kCTCNAD^+/KdNAD++NAD^+, in which kCTC is the limiting rate constant for the rearrangement of the encounter complex to form the CTC, and Kd^NAD+ is the dissociation constant for the mentioned transient encounter complex.
# [2] = Reactivity of the CTC towards molecular oxygen (CTC half-life); assay type: biochemical; conditions: 25°C, air saturated 50 mM potassium phosphate, pH 7.4
# Procedure: The reactivity of the CTC towards molecular oxygen was monitored by full reduction of hAIF∆1-101 samples with NADH (1.5-fold the concentration of the protein) in 50 mM phosphate buffer, pH 7.4, and following their reoxidation in a Cary 100 spectrophotometer (Agilent, Santa Clara, CA). Absorption spectra were recorded at 25 °C until full oxidation of the flavin cofactor was achieved. For each time, the percent remaining of CTC versus reoxidation by molecular oxygen was estimated as ΔAt/ΔAmax, where ΔAmax is the difference between the minimum and the maximum absorbance at 700 nm, and ΔAt is the difference of each value at 700nm minus the minimum absorbance at 700 nm. The CTC half-life is the time at which 50% of CTC still remains.
# [3] = Steady-state DCPIP-dependent diaphorase (NADH oxidase) activity; assay type: biochemical
# Description: […] When saturation profiles on the pyridine nucleotide concentration were observed, kinetic constants were estimated by fitting initial reaction rates at different coenzyme concentrations to the Michaelis-Menten equation: (2) ν/e=kcat NADH/KmNADH+NADH,ν/e=kcat/KmNADHNADH/1+kcat/KmNADHNADH/kcat, where v stands for the initial velocity, e is the enzyme concentration, Km^NADH is the Michaelis constant for the enzyme-NADH complex, kcat is the turnover number of the enzyme, and kcat/Km^NADH is the enzyme catalytic efficiency.
# [4] = Stopped-flow reduction of hAIF∆1-101ox by NADH (hydride transfer); assay type: biochemical; conditions: pre-steady-state, 25°C, pH 7.4
# Procedure: A SX18.MV stopped-flow spectrophotometer (Applied Photophysics Ltd., Surrey, UK), interfaced with the ProData-SX software and a photodiode array detector, was used to investigate the fast kinetic reduction of the hAIF variants by the NADH coenzyme. Samples of ~10 μM hAIF∆1-101ox were mixed with increasing concentrations of NADH (0.03-10 mM) under aerobic conditions in 50 mM potassium phosphate, pH 7.4, at 25 °C. The enzyme and NADH concentrations are the final ones obtained after mixing equal volumes of substrate and enzyme. Observed rate constants for the hydride transfer (HT) event (kobs) were calculated by global analysis and numerical integration methods (simultaneously using all spectral data in the 400-800 nm region along time evolution). A single-step model (A→B) best fitted to describe the overall reaction at all NADH concentrations assayed. Averaged kobs values at each NADH concentration were then fitted to the equation that describes the formation of an enzyme:substrate complex prior to the HT event: (3) kobs=kHTNADH/KdNADH+NADH+krev, where kHT is the limiting rate constant for HT from the pyridine nucleotide coenzyme to the FAD cofactor of hAIF, Kd^NADH is the dissociation constant of the transient hAIF∆1-101ox:NADH complex, and krev is the reaction constant for a potential overall reverse process.
# [5] = steady-state DCPIP diaphorase reaction
substance,measurement,setting,value
W196L: W196L site-directed mutant of hAIF∆1-101,k CTC,"[1]; hAIF∆1-101phrd variants mixed with NAD+, anaerobic, 25°C, pH 7.4",29 ± 2 s⁻¹
same,k CTC/Kd^NAD+,"[1]; hAIF∆1-101phrd variants, anaerobic, 25°C, pH 7.4",67 ± 18 s⁻¹ mM⁻¹
same,decrease in Kd^NAD+ relative to WT,[1]; hAIF∆1-101phrd with NAD+,~ 5 fold
same,Kd,"[1]; transient hAIF∆1-101phrd:NAD+ complex, anaerobic, 25°C, pH 7.4, read-out: K d ^NAD+",433 ± 11 µM
same,CTC half-life versus reoxidation by O2,[2],32 min
same,decrease in Km^NADH relative to WT,[3]; [5],~ 3 fold
same,efficiency oxidizing NADH relative to WT,[3]; [5],~ 8 times
same,increase in turnover rate relative to WT,[3]; [5],~ 3 fold
same,K m ^NADH,"[3]; steady-state, NADH donor, 95 μM DCPIP acceptor, 25°C, 50 mM potassium phosphate, pH 7.4 (table footnote)",187 ± 18 µM
same,k cat,"[3]; steady-state, NADH donor, 95 μM DCPIP acceptor, 25°C, 50 mM potassium phosphate, pH 7.4 (table footnote), n = 3, mean ± SD",2.8 ± 0.1 s⁻¹
same,k HT/Kd^NADH,[4],21 ± 3 s⁻¹ mM⁻¹
same,k HT,"[4]; hydride transfer from NADH to FAD, aerobic, 50 mM potassium phosphate",36 ± 1 s⁻¹
same,Kd,"[4]; transient hAIF∆1-101ox:NADH complex, read-out: K d ^NADH",1.72 ± 0.21 mM
same,ΔH (unfolding enthalpy),"CTC hAIF∆1-101rd:NAD^+, 100-fold excess NADH",159 ± 4 kcal/mol
same,T m CTC ^FAD,"CTC hAIF∆1-101rd:NAD^+, 100-fold excess NADH, pH 7.4, ionic strength 150 mM",324 ± 1 K
same,T m CTC ^FAD − Tm^FAD,CTC state relative to oxidized state of the same variant,−2 ± 2 K
same,ΔTm CTC^FAD,"CTC state, variant relative to WT CTC",0 K
same,ΔH (unfolding enthalpy),"hAIF∆1-101ox, pH 7.4, ionic strength 150 mM",118 ± 3 kcal/mol
same,ΔTm^FAD,"hAIF∆1-101ox, variant relative to WT",−11 ± 2 K
same,T m ^FAD,"hAIF∆1-101ox, ~2 μM protein, 50 mM potassium phosphate, pH 7.4, ionic strength 150 mM",326 ± 1 K
